Source: patent US8022177B2, “Peptides and calcium regulation in mammalian cells” (The Board of Trustees of the University of Illinois, priority 2005, dated 2011)

B1: γ7: rat calcium channel γ7 subunit (AF361345), SEQ ID NO:50 (protein, listed as Rattus norvegicus)
chain: MSHCSSRALTLLSSVFGACGLLLVGIAVSTDYWLYMEEGTVLPQNQTTEVKMALHAGLWRVCFFAGREKGRCVASEYFLEPEINLVTENTENILKTVRTATPFPMVSLFLVFTAFVISNIGHIRPQRTILAFVSGIFFILSGLSLVVGLVLYISSINDEVMNRPSSSEQYFHYRYGWSFAFAASSFLLKEGAGVMSVYLFTKRYAEEEMYRPHPAFYRPRLSDCSDYSGQFLQPEAWRRGRSPSDISSDVSIQMTQNYPPAIKYPDHLHISTSPC
B2: γ6 L43S: γ6 with leucine at position 43 substituted with serine (protein, UniProt Q9BXT2 1-260, looked up, variant L43S)
Voltage-dependent calcium …: MMWSNFFLQEENRRRGAAGRRRAHGQGRSGLTPEREGKVKLASLLAAVGATLAVLSVGTEFWVELNTYKANGSAVCEAAHLGLWKACTKRLWQADVPVDRDTCGPAELPGEANCTYFKFFTTGENARIFQRTTKKEVNLAAAVIAVLGLAVMALGCLCIIMVLSKGAEFLLRVGAVCFGLSGLLLLVSLEVFRHSVRALLQRVSPEPPPAPRLTYEYSWSLGCGVGAGLILLLGAGCFLLLTLPSWPWGSLCPKRGHRAT

What was measured:
Cav3.1 [1] = target: T1, Cav3.1 (Homo sapiens, UniProt O43497); assay: Whole-cell patch clamp of Cav3.1 current in Cav3.1-HEK cells transfected with γ6, γ4, their first transmembrane domains or point mutants (Example 3); type: cell-based; parameters: Activation K / Inactivation K: unit not given here; conditions: for Peak current density: Cav3.1-HEK cells, control 48.43±2.62; for Calcium current density (unit not given): Example 2, control −48.39+/−2.6, fusion series control −46.9+/−5; for Activation K / Activation V peak / Activation V½ / Deactivation τ @−100 mV / Inactivation K / Inactivation V½ / Inactivation τ @−20 mV / Time to peak @−25 mV: Table 3.2; for Normalized Current Density: relative to vector control (100.0%), Table 3.3
T1 construct: expressed in transfected cells; host or cells: HEK-293, stably transfected
T1 sequence (O43497 whole entry, the tested form may be a part): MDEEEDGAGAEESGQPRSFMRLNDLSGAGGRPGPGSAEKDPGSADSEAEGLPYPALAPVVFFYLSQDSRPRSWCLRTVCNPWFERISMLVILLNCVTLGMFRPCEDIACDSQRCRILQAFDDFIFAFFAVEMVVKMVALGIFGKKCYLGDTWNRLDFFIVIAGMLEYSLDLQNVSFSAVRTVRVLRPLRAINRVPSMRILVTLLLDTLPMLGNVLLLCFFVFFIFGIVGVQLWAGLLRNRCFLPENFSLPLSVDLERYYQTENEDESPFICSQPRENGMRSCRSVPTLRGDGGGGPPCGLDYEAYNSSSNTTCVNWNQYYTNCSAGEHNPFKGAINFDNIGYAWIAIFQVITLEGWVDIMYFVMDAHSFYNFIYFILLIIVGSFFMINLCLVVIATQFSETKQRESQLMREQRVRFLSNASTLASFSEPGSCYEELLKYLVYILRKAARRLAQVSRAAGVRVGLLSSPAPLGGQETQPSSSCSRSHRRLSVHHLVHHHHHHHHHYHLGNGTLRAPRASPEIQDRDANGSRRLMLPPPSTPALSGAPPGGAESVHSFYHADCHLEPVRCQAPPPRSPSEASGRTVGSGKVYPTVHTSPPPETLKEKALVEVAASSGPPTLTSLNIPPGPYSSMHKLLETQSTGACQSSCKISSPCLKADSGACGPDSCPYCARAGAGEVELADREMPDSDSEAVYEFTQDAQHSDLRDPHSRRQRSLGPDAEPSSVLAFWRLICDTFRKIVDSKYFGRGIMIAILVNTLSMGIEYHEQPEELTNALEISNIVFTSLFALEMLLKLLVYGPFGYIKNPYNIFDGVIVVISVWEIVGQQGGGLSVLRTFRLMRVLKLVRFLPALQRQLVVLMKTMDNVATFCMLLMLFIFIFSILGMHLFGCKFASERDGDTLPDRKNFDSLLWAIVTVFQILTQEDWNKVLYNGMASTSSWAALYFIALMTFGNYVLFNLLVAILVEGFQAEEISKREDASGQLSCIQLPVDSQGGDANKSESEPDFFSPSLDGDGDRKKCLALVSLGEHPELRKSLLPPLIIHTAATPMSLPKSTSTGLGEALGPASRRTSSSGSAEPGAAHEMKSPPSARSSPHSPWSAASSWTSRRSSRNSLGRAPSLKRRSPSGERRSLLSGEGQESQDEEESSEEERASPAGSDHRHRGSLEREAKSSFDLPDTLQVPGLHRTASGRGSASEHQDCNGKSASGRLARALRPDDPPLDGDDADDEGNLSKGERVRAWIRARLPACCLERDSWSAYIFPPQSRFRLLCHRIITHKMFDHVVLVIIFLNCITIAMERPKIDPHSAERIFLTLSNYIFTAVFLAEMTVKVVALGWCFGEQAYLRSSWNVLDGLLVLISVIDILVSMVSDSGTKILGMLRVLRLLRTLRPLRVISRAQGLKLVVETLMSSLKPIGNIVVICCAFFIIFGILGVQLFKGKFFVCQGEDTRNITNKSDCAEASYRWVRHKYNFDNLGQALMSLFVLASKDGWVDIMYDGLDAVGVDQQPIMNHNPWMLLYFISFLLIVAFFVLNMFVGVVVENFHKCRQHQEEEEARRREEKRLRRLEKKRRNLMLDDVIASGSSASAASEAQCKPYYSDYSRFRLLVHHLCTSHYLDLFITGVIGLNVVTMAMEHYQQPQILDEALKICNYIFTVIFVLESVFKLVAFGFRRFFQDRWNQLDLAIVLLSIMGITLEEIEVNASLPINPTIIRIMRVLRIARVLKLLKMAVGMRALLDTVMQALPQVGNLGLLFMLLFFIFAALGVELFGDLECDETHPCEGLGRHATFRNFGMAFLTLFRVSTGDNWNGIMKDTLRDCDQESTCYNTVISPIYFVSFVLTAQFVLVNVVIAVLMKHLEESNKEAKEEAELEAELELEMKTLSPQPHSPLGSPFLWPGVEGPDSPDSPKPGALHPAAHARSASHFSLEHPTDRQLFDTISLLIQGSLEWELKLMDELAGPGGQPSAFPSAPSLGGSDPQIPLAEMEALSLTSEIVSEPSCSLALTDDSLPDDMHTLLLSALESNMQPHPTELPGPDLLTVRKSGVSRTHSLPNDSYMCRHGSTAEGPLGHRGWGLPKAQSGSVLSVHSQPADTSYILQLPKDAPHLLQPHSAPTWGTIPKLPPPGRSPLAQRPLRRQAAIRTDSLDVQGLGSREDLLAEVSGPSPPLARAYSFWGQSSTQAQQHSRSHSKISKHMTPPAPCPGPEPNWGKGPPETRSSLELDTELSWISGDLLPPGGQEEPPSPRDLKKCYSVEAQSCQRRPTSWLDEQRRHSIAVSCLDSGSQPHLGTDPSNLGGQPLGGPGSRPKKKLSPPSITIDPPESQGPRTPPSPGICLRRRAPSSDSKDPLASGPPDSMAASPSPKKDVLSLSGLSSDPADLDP
Experimental: Transfection. HEK-293 cells stably transfected with the Cav3.1 α1 subunit were transiently transfected with vectors containing GFP and γ subunits cDNA when the cultures reached 50% confluency. Lipofectamine 2000 reagent (Invitrogen) was used following manufacturer's protocol.
Electrophysiology. Whole cell Ca2+ currents were recorded at room temperature using an Axon Instruments Axopatch-1D amplifier, a Digidata 1200 interface and pClamp8.0 software about 48 hours after transfection. Cell capacitance was typically around 10 pF, but ranged from 5-40 pF. Recording micropipettes were made from borosilicate glass (2-3 Mohms tip resistance), and filled with solution contained (in mM) 130 NaCl, 10 EGTA, 2 MgCl2, 1 CaCl2, 10 HEPES, 3 Tris-ATP, and 0.3 Li2GTP or 0.3 Tris-GTP. Tyrode's solution was used as the bath solution. It contained (in mM) 137 NaCl, 1 KCl, 1 MgCl2, 0.33 NaH2PO4, 2 CaCl2, 10 HEPES. Both solutions were adjusted to pH 7.4 with NaOH and 280 mOsm with sucrose.
We determined the biophysical characteristics of Cav3.1 currents in transfected HEK-293 cells and effects of the first transmembrane domain of γ4 and γ6 on these properties. Test parameters were optimized for studying Cav3.1 current. The time constant (τ) of deactivation (τdeac) was obtained by single exponential fitting of tail currents. For Cav3.1 currents, the cells were clamped at a holding potential of −100 mV, then depolarized to −20 mV for 4 msec, and repolarized to various voltages from −120 mV to −60 mV at 10 mV interval for 150 msec to elicit tail currents.
The voltage dependence of activation was measured using tail currents. For Cav3.1 currents, the cells were clamped at a holding potential equal to −100 mV, and then depolarized briefly to a conditioning potential, varying from −90 mV to +60 mV, and finally clamped at −60 mV before inactivation. Using this protocol, all tail currents are elicited at the same driving force (at −60 mV), so the current amplitude accurately reflects the number of channels opened during the different conditioning potentials.
A series of conditioning prepulses of 500 msec were used to measure voltage dependence of inactivation in our experiments. Channels initially open and then reach steady-state inactivation during the 500 msec long prepulses. The membrane potential is stepped to a fixed test potential of −20 mV, where maximal peak current is elicited. Currents elicited at each test potential reflect how many channels are not in the inactivated state after a steady-state inactivation; that is, how many channels are available to open. The conditioning prepulse potentials were changed from −120 mV to 50 mV, and the test potential is fixed at −20 mV.
Data collection and analysis. To probe the structural features necessary for the function of γ subunits, we are using HEK-293 cell line stably transfected with Cav3.1 α1 subunit. These cells are then transiently transfected with vectors containing various chimeric, truncated or mutant gamma subunits. […] There is inherent variation in calcium current density in the HEK-Cav3.1 stable cell line likely due to differences in the batch used, passenger number, extent of cellular confluence, or for other unknown reasons. The averaged current density of each test group of cells was normalized to the mean current density of a parallel control group of cells plated from the same batch of cells and analyzed on the same day. A minimum of 5 cells (typically 7 to 10) from each group was used to calculate the mean behavior of test and control cells from each days recording. At least two independent transfections were performed for each test condition. Overall, averages were obtained from 21 control groups of cells that had been transfected with empty vector over several months. The data are pooled together to reduce the variance. […] The current density of the control cells over many months justified the pooling of data recorded from different batches of cells transfected with mutated γ subunits. […]

Cav3.1 [2] = target: T1, Cav3.1; assay: Whole-cell patch clamp of Cav3.1 dependent LVA calcium current in HEK-293/Cav3.1 cells transiently transfected with γ subunits (Example 1); type: cell-based
Experimental: 2.3. Transfection. Untransfected HEK-293 cells, HEK-293 cell lines stably transfected with Cav3.1, and HL-1 cells were transiently transfected with vectors containing γ subunit, GFP, and modified CFP cDNAs using Lipofectamine 2000 reagent (InVitrogen) as per the manufacturer's recommendations. HEK-293 cells were grown to 70-80% confluence before transfection. HL-1 cells were grown to 50-75% confluence before transfection.
2.4. Electrophysiology. Whole-cell calcium currents were recorded using an Axopatch-1 D patch clamp system and Clampex 8.0 software. Pipettes were fabricated from borosilicate glass and had typical resistances of 2-4 MΩ. The pipette solution contained (in mM): 130 NaCl, 10 EGTA, 2 MgCl2, 1 CaCl2, 10 HEPES, 3 Tris-ATP, and either 0.3 Li2GTP or 0.3 Tris-GTP, adjusted to pH 7.4 with NaOH and 280 mOsm with sucrose. The bath solution contained (in mM): 137 NaCl (for HEK-293 experiments) or 120 TEACl (for HL-1 experiments), 1 KCl, 1 MgCl2, 0.33 NaH2PO4, 2 CaCl2 (for HEK-293 experiments) or 5 CaCl2 (for HL-1 experiments), 10 glucose (for HL-1 experiments only), 10 HEPES, and 30 μM TTX (for HEK-293 experiments only), adjusted to pH 7.4 with NaOH (for HEK-293 experiments) or TEAOH (for HL-1 experiments) and 280 mOsm with sucrose. NaCl was used as the major salt in the pipette solution order to eliminate any outward K+ currents.
Recordings from HEK-293 cells were made 48-96 h posttransfection, at which time expression, as measured by GFP fluorescence, peaked. HL-1 cells were used for recording 24-36 h post-transfection. Current densities in HEK-293/Cav3.1 cell experiments were normalized to control for variation in current expression in the different frozen stocks of stable cell lines used. […] HL-1 experiments were performed using a single stock of cells. All HEK-293 data are from current records in which pipette and whole-cell capacitance were about 100% compensated and series resistance was compensated to >80%. Whole-cell capacitance and series resistance were not compensated for HL-1 recordings as currents were typically <100 pA. Series resistance values were typically <10 MX, and no records were used in which the voltage error (as defined by Ver=Imax×Ra) was greater than 5 mV. The holding potential of all protocols used for HEK-293 cells was −100 mV except for steady-state inactivation protocols where the holding potential was −120 mV. The holding potential for protocols used for HL-1 cells was −90 mV. Current-voltage relationships for all HEK-293 and HL-1 cells were measured using 50 ms test depolarizations. Peak current amplitudes for activation curves were determined by fitting tail currents, elicited by stepping membrane voltage from varying test potentials to −60 mV, with the Boltzman equation. Test potential steps for activation protocols were of varied durations, corresponding to the time to peak of the elicited current. Inactivation curves were determined by fitting peak amplitudes of currents, observed in a test pulse to −20 mV, following 500 ms steps to varying potentials, with the Boltzman equation. Time to peak was determined using the current-voltage protocol described above. Inactivation time constants were determined by fitting the decay phase of currents to an exponential equation and deactivation time constants were determined by fitting the decay phase of tail currents to an exponential equation. […] Currents were recorded at 40 kHz and on-line filtered at either 5 or 10 kHz. In some cases currents were off-line filtered at 1 kHz to further reduce noise. Current/voltage relationships and tail currents were recorded from HEK cells using an on-line P/−4 subtraction procedure. Calcium currents recorded from HL-1 cells were off-line leak subtracted. The average membrane capacitance of untransfected HEK-293 cells in pilot experiments was 12.5±1.4 pF (n=8). […]

Row | Molecule | Peak current density (Cav3.1 [1]) [pA/pF] | Calcium current density (unit not given) (Cav3.1 [1]) | Activation K (Cav3.1 [1]) | Activation V½ (Cav3.1 [1]) [mV] | Deactivation τ @−100 mV (Cav3.1 [1]) [ms] | Inactivation K (Cav3.1 [1]) | Inactivation V½ (Cav3.1 [1]) [mV] | Inactivation τ @−20 mV (Cav3.1 [1]) [ms] | Time to peak @−25 mV (Cav3.1 [1]) | other results
1 | γ6 TM1: first transmembrane domain of γ6, approximately 20 amino acids, SEQ ID NO:12 (KLGLLVAIVGATLAVLAVGT) | 38.65±2.92 | −38.6+/−2.9 | 10.85 ± 0.49 | −30.33 ± 2.32 | 2.01 ± 0.21 | −5.54 ± 0.12 | −62.43 ± 0.65 | 24.0 ± 1.3 | 11.06 ± 0.97 | Decrease of peak current density from control (Cav3.1 [1]; TM1 series, vs blank vector): 20%; Activation V peak (Cav3.1 [1]): −26.00±1.00 mV; Activation V peak (Cav3.1 [1]; listed as γ6 1stTM): −26.00 ± 1.00 mV
2 | γ4 TM1: first transmembrane domain of γ4, SEQ ID NO:17 (LLTTAGAFAAFSLMAIAIGT) | 56.34±5.01 | −48.3+/−3 | 13.29 ± 0.70 | −29.71 ± 2.03 | 2.40 ± 0.22 | −5.92 ± 0.12 | −66.17 ± 0.83 | 25.5 ± 0.9 | 9.00 ± 0.51 | Activation V peak (Cav3.1 [1]; listed as γ4 1stTM): −28.57 ± 0.82 mV; Activation V peak (Cav3.1 [1]; listed as γ4 first transmembrane domain): −28.57±0.82 mV
3 | B1 | – | – | – | – | – | – | – | – | – | Effect on current kinetics or voltage dependency (Cav3.1 [2]; HEK-293/Cav3.1): did not alter current kinetics or voltage dependency; Peak current density, % of control value (Cav3.1 [2]; HEK-293/Cav3.1, normalized to adCGI vector control, mean±S.E.M.): 99%±8%; Effect on Cav3.1 current (Cav3.1 [2]; HEK-293 cells): no significant effect; Activation V 0.5 (Cav3.1 [2]; Table 2): −28.1 ± 1.2 (n = 11) mV; Activation k (Cav3.1 [2]; Table 2): 11.1 ± 0.3 (n = 11); Deactivation tau @ −100 mV, Fast (Cav3.1 [2]; Table 2): 1.30 ± 0.10 (n = 11) ms; Inactivation Tau @ −20 mV (Cav3.1 [2]; Table 2): 17.2 ± 0.5 (n = 10) ms; Inactivation V 0.5 (Cav3.1 [2]; Table 2): −68.6 ± 1.4 (n = 10) mV; Inactivation k (Cav3.1 [2]; Table 2): 6.0 ± 0.1 (n = 10); Time to peak @ −20 mV (Cav3.1 [2]; Table 2): 7.0 ± 0.4 (n = 11) ms; V peak (Cav3.1 [2]; Table 2): −24.1 ± 0.9 (n = 11) mV
4 | B2 | – | – | – | – | – | – | – | – | – | Normalized Current Density (Cav3.1 [1]): 48.2%; Normalized Current Density (Cav3.1 [1]; listed as L43S): 48.2%±7.2%
